The values below come from PMC8614642.

This experiment deals with recombinant K38 depolymerase region (residues 147-742) of the tailspike gp46 of Acinetobacter pittii phage vB_Api_3043-K38 (Acinetobacter pittii phage vB_Api_3043-K38). Nature of the experiment: SEC; analytical size exclusion on Superose 6 10/300 GL, 10 mM PBS pH 7.5, 4 °C, 0.75 mL/min, mass estimated from calibration standards.

Consider “recombinant K38 depolymerase region (residues 147-742) of the tailspike gp46 of Acinetobacter pittii phage vB_Api_3043-K38 (domain or fragment)”, for which the stoichiometry N was 3.

As a reminder, the stoichiometry N is the number of molecules, sites or subunits per partner or assembly.
